For orientation: Kd means the equilibrium constant for the complex coming apart. A lower Kd goes with a tighter complex.

This assay concerns the target T1, His-tagged cytosolic part of MinJ, fluorescently labeled (B. subtilis, labeled with the amine-reactive red fluorescent dye NT-647 NHS).
T1 chain: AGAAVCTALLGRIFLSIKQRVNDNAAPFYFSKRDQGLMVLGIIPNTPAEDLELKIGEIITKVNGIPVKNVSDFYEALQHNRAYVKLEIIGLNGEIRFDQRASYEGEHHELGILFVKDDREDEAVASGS
In words: MST; NT-647-labeled His-cyt-MinJ at 34 μM, cyt-RodZ titrated from 6.7 nM to 221 μM in 16 capillaries; Monolith NT.115; the methods call the Kd preliminary. The settings on record: both partners purified.

B1: His-tagged cytosolic part of RodZ (domain or fragment)
chain: VTELGIRLKEAREEKAMSLDDLQAATKIQKRYLTALEEGNYDIIPGKFYVRAFIKQYAEAVGLDADQLFEEHKKDIPNTYHDDVSEKISGMNLQKEMPKPASKALE
The molecule B1 returned a dissociation constant (Kd) of 5.1 ± 0.6 µM.

Values taken from paper PMC5778138, “Interaction of the Morphogenic Protein RodZ with the Bacillus subtilis Min System” (Frontiers in Microbiology, 2017).
